Test results as given in paper PMC7948479, “Allostery in the nitric oxide dioxygenase mechanism of flavohemoglobin” (The Journal of Biological Chemistry, 2020).
Read-outs that look alike come from different tables or passages of the source.

Legend:
E. coli flavoHb-NOD = format: biochemical, Escherichia coli; settings: for Ki: NO competitive with O2; for K3: NO passage through gate, apparent Km(NO); for Kii(NO): NO uncompetitive inhibition; for K2: O2 displacement of LeuE11; for k'NOD app: calculated from Vmax/K3; for k'NOD: calculated from Vmax/K4; for K4: reaction of NO with Fe^3+O2^−; for KT: trigger step equilibrium constant
Text: We have formulated a steady-state velocity equation for the catalytic cycle with the activating trigger step (KT) (Equation 1).(1) v= Vmax(a) where a=([NO]^2[O2]^2/K1K2K3KTK4)/(1+([O2]/K1)+([O2]^2/K1K2)+(([O2]^2[NO])/K1K2K3)+(([O2]^2[NO])/K1K2K3KT)+(([O2]^2[NO]^2)/K1K2K3KTK4))
(2) v= Vmax(a)(b) where b=[NO]/(K3+([NO](1+((K2/[O2])(1+([NO]/Ki(NO)))))))
In addition, we have introduced a factor and equilibrium constant Ka(O2) for rare situations in which O2 causes an additional NO-independent activation of catalysis possibly by occupying unique binding sites or cavities (Equation 5).
NOD activity was measured amperometrically in 100 mM phosphate buffer, pH 7.0, containing 0.3 mM EDTA, 100 μg/ml bovine serum albumin (BSA) (Fraction V), 100 μM NADH, 0.1 μM FAD with NO, O2, and N2 mixtures added as described ([4], [72]). NADH oxidase activity was followed spectrophotometrically at 340 nm in a 1.0-ml cuvette containing 90 mM Tris chloride buffer, pH 8.2, 100 μM NADH, 200 μM O2, 0.1 μM FAD, 100 μg/ml BSA, and 0.3 mM EDTA and incubated at 37 °C. Cytochrome b5 reductase activity was assayed at 37 °C by following the rate of absorbance increase at 555 nm in a 1.0-ml reaction buffered with 90 mM Tris chloride, pH 8.2, and containing 10 μM ferric cytochrome b5, 200 μM O2, 20 μM NADH, 0.1 μM FAD, 100 μg/ml BSA, and 0.3 mM EDTA. TMAO reductase activity was assayed by following the absorbance decrease at 340 nm in a 1.0-ml anaerobic reaction containing 12 U Aspergillus niger glucose oxidase, 5 mM glucose, 260 U catalase, 400 mM TMAO, 100 μM NADH, 0.1 μM FAD, 100 μg/ml BSA, and 0.3 mM EDTA in 90 mM Tris chloride pH 8.2 and incubated at 37 °C. Ngb reductase activity was assayed by following the absorbance increase at 424 nm in a 1.0-ml anaerobic reaction containing 12 U glucose oxidase, 5 mM glucose, 260 U catalase, 5 μM Ngb, 50 μM NADH, 0.1 μM FAD, 100 μg/ml BSA, and 0.3 mM EDTA in 90 mM Tris chloride buffer, pH 8.2, and incubated at 37 °C. Methyl viologen reductase activity was assayed by following the formation of the blue cation radical at 603 nm and by applying an extinction coefficient of 13,300 M^−1 cm^−1 in a 1.0-ml anaerobic reaction buffered with 10 mM potassium phosphate, pH 7.0, and containing 12 U glucose oxidase, 5 mM glucose, 260 U catalase, 100 μM NADH, 0.1 μM FAD, 100 μg/ml BSA, 0.3 mM EDTA, and 200 mM sodium chloride and incubated at 37 °C. NO reductase activity was assayed amperometrically at 37 °C in a 1.0-ml anaerobic reaction containing 2 μM NO, 100 μM NADH, 0.1 μM FAD, 12 U glucose oxidase, 5 mM glucose, 260 U catalase, 100 μg/ml BSA, and 0.3 mM EDTA buffered with 10 mM potassium phosphate pH 7.0. CO effects were tested at a final concentration of 50 μM as diluted from a 1 mM stock in water. All activities are reported relative to the heme content of flavoHb.
Rate constants were estimated from the model kinetic equation using Python programming with successive approximations to optimize fits with varying NO and O2 concentrations. Vmax, K1, K2, KT, and Kii(NO) values were treated as independent variables for a given flavoHb while allowing K3, K4, and Ki(NO) to vary over limited ranges with varying O2 concentration. Kii(NO) was estimated from NO inhibition at saturating O2 concentrations.

[1] = NO reductase activity (anaerobic); format: biochemical
Description: (§1) NADH oxidase activity was followed spectrophotometrically at 340 nm in a 1.0-ml cuvette containing 90 mM Tris chloride buffer, pH 8.2, 100 μM NADH, 200 μM O2, 0.1 μM FAD, 100 μg/ml BSA, and 0.3 mM EDTA and incubated at 37 °C. […] TMAO reductase activity was assayed by following the absorbance decrease at 340 nm in a 1.0-ml anaerobic reaction containing 12 U Aspergillus niger glucose oxidase, 5 mM glucose, 260 U catalase, 400 mM TMAO, 100 μM NADH, 0.1 μM FAD, 100 μg/ml BSA, and 0.3 mM EDTA in 90 mM Tris chloride pH 8.2 and incubated at 37 °C. […] Methyl viologen reductase activity was assayed by following the formation of the blue cation radical at 603 nm and by applying an extinction coefficient of 13,300 M^−1 cm^−1 in a 1.0-ml anaerobic reaction buffered with 10 mM potassium phosphate, pH 7.0, and containing 12 U glucose oxidase, 5 mM glucose, 260 U catalase, 100 μM NADH, 0.1 μM FAD, 100 μg/ml BSA, 0.3 mM EDTA, and 200 mM sodium chloride and incubated at 37 °C. NO reductase activity was assayed amperometrically at 37 °C in a 1.0-ml anaerobic reaction containing 2 μM NO, 100 μM NADH, 0.1 μM FAD, 12 U glucose oxidase, 5 mM glucose, 260 U catalase, 100 μg/ml BSA, and 0.3 mM EDTA buffered with 10 mM potassium phosphate pH 7.0. CO effects were tested at a final concentration of 50 μM as diluted from a 1 mM stock in water. […]

ferric cytochrome b5 = assay: Cytochrome b5 reductase activity; format: biochemical, rat; settings: 37 °C; 10 μM ferric cytochrome b5
Text: Reagents were purchased from Sigma-Aldrich Chemical Co (St Louis, MO, USA) unless otherwise stated. DNA primers were synthesized at the University of Cincinnati Medical Center DNA facility. Praxair (Bethlehem, PA, USA) was the supplier of 99.993% O2, 99.999% CO, and 99.98% N2. Bovine liver catalase (260,000 U/ml) was obtained from Roche Applied Science. Recombinant rat cytochrome b5 (soluble form) and murine Ngb were expressed in E. coli and purified essentially as described ([10], [70]). NADH purity (≥95%) was assessed by the ratio of the 340 to 260 nm absorbance with a value of 0.437 equal to 100% reduced.

TMAO reductase activity = format: biochemical; settings: 37 °C; 400 mM TMAO; anaerobic
Description: as §1

[2] = parameters: method as in PMID 10777548, PMID 10922365; settings: cited from earlier work
[3] = parameters: method as in PMID 7821669; settings: cited from earlier work
E. coli growth = tested on: E. coli growth; parameters: method as in PMID 11751865; settings: atmosphere containing 5 μM O2 and 0.5 μM NO; cited from earlier work
anaerobic E. coli = tested on: anaerobic E. coli; parameters: method as in PMID 11751864; settings: cited from earlier work
E. coli flavoHb = E. coli flavoHb (Escherichia coli, UniProt P24232); settings: cited from earlier work
[4] = tested on: flavoHb heme (Fe^2+ / Fe^3+); settings: cited from earlier work

B1: WT: wild-type E. coli flavohemoglobin (flavoHb), an NO dioxygenase (NOD) (protein, UniProt P24232 1-396, looked up)
Flavohemoprotein: MLDAQTIATVKATIPLLVETGPKLTAHFYDRMFTHNPELKEIFNMSNQRNGDQREALFNAIAAYASNIENLPALLPAVEKIAQKHTSFQIKPEQYNIVGEHLLATLDEMFSPGQEVLDAWGKAYGVLANVFINREAEIYNENASKAGGWEGTRDFRIVAKTPRSALITSFELEPVDGGAVAEYRPGQYLGVWLKPEGFPHQEIRQYSLTRKPDGKGYRIAVKREEGGQVSNWLHNHANVGDVVKLVAPAGDFFMAVADDTPVTLISAGVGQTPMLAMLDTLAKAGHTAQVNWFHAAENGDVHAFADEVKELGQSLPRFTAHTWYRQPSEADRAKGQFDSEGLMDLSKLEGAFSDPTMQFYLCGPVGFMQFTAKQLVDLGVKQENIHYECFGPHKVL
Vmax (E. coli flavoHb-NOD; 20 °C): 160 NO heme^−1 s^−1
Ki (E. coli flavoHb-NOD; 20 °C): 300 to 1000 nM
K3 (E. coli flavoHb-NOD; 20 °C): 0.1–0.4 Micromolar
Kii(NO) (E. coli flavoHb-NOD; 20 °C): 10 (10) Micromolar
K2 (E. coli flavoHb-NOD; 20 °C): 20 Micromolar
k'NOD app (E. coli flavoHb-NOD; 20 °C): 0.4–1.6 10^9 M^−1 s^−1
k'NOD (E. coli flavoHb-NOD; 20 °C): 0.5–2.7 10^9 M^−1 s^−1
K4 (E. coli flavoHb-NOD; 20 °C): 0.06–0.3 Micromolar
KT (E. coli flavoHb-NOD; 20 °C): 0.1 (0.1)
Vmax (E. coli flavoHb-NOD; 37 °C): 580 NO heme^−1 s^−1
Ki (E. coli flavoHb-NOD; 37 °C): 700 to 1200 nM
K3 (E. coli flavoHb-NOD; 37 °C): 0.25 Micromolar
Kii(NO) (E. coli flavoHb-NOD; 37 °C): 10 (10) Micromolar
K2 (E. coli flavoHb-NOD; 37 °C): 120 Micromolar
k'NOD app (E. coli flavoHb-NOD; 37 °C): 2.3 10^9 M^−1 s^−1
k'NOD (E. coli flavoHb-NOD; 37 °C): 9.7–19 10^9 M^−1 s^−1
K4 (E. coli flavoHb-NOD; 37 °C): 0.03–0.06 Micromolar
KT (E. coli flavoHb-NOD; 37 °C): 0.1 (0.1)
overall activation energy (Ea) (E. coli flavoHb-NOD; Arrhenius equation for Vmax at 37 and 20 °C): ~13.7 kcal/mol
NO reductase activity ([1]; 37 °C, 2 μM NO, anaerobic): 0.19 s⁻¹
time for 90% reversal in the steady state ([1]; with NO elimination via reduction): 23 s
cytochrome b5 reductase activity (ferric cytochrome b5): 0.14 s⁻¹
TMAO reductase activity (TMAO reductase activity): 0.21 s⁻¹
NO elimination via reduction [2]: ≤ 0.1 s⁻¹
Vmax for Fe^2+NO reduction [2]: 0.1 s⁻¹
FAD/FADH2 potential (E^0) [3]: < −0.15 V
nominal heme mid-point potential [3]: −0.125 V
protection of E. coli growth (E. coli growth): fully protects
NO metabolic activity (anaerobic E. coli): insignificant NO metabolic activity
kET previously reported (E. coli flavoHb): 136 s⁻¹
k ([4]; Fe^2+ NO dissociation): 0.0002 (4) s^−1
k ([4]; Fe^3+ NO dissociation): ∼4000 (4) s^−1
